Changes are numbered by the printed parent chain. Numbered stars: 1 amine (or outer) side, 2 acyl side, 3 side chain; on linkers, the order of the positions; unused ones are H or OH. Bridge positions count the residues as written; N and C are the ends. * marks the point of attachment. C20 diacid = O=C(O)CCCCCCCCCCCCCCCCCCC(=O)*; γGlu = O=C(O)[C@H](CCC(=O)[*:2])N[*:1]; AEEA = NCCOCCOCC(=O)O

In this assay the target is T1, human amylin receptor (amylin 3(a) receptor: human calcitonin receptor with RAMP-3) (human, UniProt P30988 25-474; O60896 24-148).
T1 construct: whole, on cells; also called hAmylin-R; hAmylinR
T1 sequence (looked up) 1: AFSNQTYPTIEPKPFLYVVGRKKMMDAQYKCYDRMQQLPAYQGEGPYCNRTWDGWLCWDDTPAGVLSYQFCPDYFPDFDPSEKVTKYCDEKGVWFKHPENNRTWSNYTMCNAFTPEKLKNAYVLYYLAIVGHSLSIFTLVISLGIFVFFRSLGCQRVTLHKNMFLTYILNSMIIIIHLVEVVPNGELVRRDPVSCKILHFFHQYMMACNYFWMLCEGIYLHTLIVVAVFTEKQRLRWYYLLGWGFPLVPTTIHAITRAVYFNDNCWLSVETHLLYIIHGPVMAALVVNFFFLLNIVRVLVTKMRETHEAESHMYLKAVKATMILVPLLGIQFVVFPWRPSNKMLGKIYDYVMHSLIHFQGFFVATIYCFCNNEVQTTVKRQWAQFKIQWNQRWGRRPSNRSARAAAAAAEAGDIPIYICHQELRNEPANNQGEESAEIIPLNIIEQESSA
T1 sequence (looked up) 2: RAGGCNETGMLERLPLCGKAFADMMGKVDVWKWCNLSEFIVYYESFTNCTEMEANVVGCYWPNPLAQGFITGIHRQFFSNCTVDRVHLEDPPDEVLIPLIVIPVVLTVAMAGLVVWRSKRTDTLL
Nature of the assay: SPA displacement of 125I-rat amylin, hAmylin 3(a) receptor membranes. How it is done:
The binding assay was performed using scintillation proximity assay (SPA) beads (RPNQ0001) from PerkinElmer and cell membranes from the Amylin 3(a)/CRE-luc cells (as described in Assay (II)) were used. Membranes were prepared in the following way; the cells were rinsed with PBS and incubated with Versene for approximately 5 min before harvesting. The cells were flushed with PBS and the cell-suspension was centrifuged for 5 min at 1000 rpm. Cells were homogenized (ultrathurrax) in a buffer containing 20 mM Na-HEPES and 10 mM EDTA (pH 7.4) and centrifuged at 20.000 rpm for 15 min. The resulting pellet was resuspended, homogenized and centrifuged (20.000 rpm, 15 min) in a buffer containing 20 mM Na-HEPES and 0.1 mM EDTA (pH 7.4, buffer 2). The resulting pellet was resuspended in buffer 2 and protein concentration was measured (BCA protein Assay, Pierce). The homogenate was kept cold during the whole procedure. The membranes were kept at −80° C. until use. The assay was performed in a 384 well Optiplate (PerkinElmer) in a total volume of 40 ul. Membranes were mixed with SPA beads. Final concentration of membranes 35 ng/μL final and SPA beads was 0.05 mg/well. Test-compounds were dissolved in DMSO and further diluted in assay buffer (50 mM Hepes, pH 7.4, 1 mM CaCl2, 5 mM MgCl₂, 0.1% OA and 0.02% Tween20). […] The final mixture was incubated with shaking at 400 rpm for 120 min at 25° C. prior to centrifugation (1500 rpm, 10 min). Samples were analyzed on TopCounter™ (Packard). The IC₅₀ was calculated using (one site binding competition analysis) GraphPad Prism5 as a measure of receptor affinity.

B1: N^α1-[(4S)-4-carboxy-4-(19-carboxynonadecanoylamino)butanoyl]-[Arg17,Pro21,Pro27,Glu35]-h-amylin (peptide)
peptide: KCNTATCATQRLANFLRHSSPNFGAIPSSTNVGSETY
modifications: C20 diacid-gGlu on alpha amino group of N-terminal Lys 1; Cys2-Cys7 disulfide; C-terminal amide
notes: also called 23; compound 23
Turning to B1, the IC50 (usually the concentration that inhibits the measured activity by half) amounted to 871 pM.

B2: N^α1-[(4S)-4-carboxy-4-(19-carboxynonadecanoylamino)butanoyl]-[Arg17,Pro21,Pro27,Pro31,Glu35]-h-amylin (peptide)
peptide: {C20 diacid-γGlu}-KCNTATCATQRLANFLRHSSPNFGAIPSSTPVGSETY-NH2
modifications: disulfide 2-7
SMILES: CC[C@H](C)[C@H](NC(=O)[C@H](C)NC(=O)CNC(=O)[C@H](Cc1ccccc1)NC(=O)[C@H](CC(N)=O)NC(=O)[C@@H]1CCCN1C(=O)[C@H](CO)NC(=O)[C@H](CO)NC(=O)[C@H](Cc1c[nH]cn1)NC(=O)[C@H](CCCNC(=N)N)NC(=O)[C@H](CC(C)C)NC(=O)[C@H](Cc1ccccc1)NC(=O)[C@H](CC(N)=O)NC(=O)[C@H](C)NC(=O)[C@H](CC(C)C)NC(=O)[C@H](CCCNC(=N)N)NC(=O)[C@H](CCC(N)=O)NC(=O)[C@@H](NC(=O)[C@H](C)NC(=O)[C@@H]1CSSC[C@H](NC(=O)[C@H](CCCCN)NC(=O)CC[C@H](NC(=O)CCCCCCCCCCCCCCCCCCC(=O)O)C(=O)O)C(=O)N[C@@H](CC(N)=O)C(=O)N[C@@H]([C@@H](C)O)C(=O)N[C@@H](C)C(=O)N[C@@H]([C@@H](C)O)C(=O)N1)[C@@H](C)O)C(=O)N1CCC[C@H]1C(=O)N[C@@H](CO)C(=O)N[C@@H](CO)C(=O)N[C@H](C(=O)N1CCC[C@H]1C(=O)N[C@H](C(=O)NCC(=O)N[C@@H](CO)C(=O)N[C@@H](CCC(=O)O)C(=O)N[C@H](C(=O)N[C@@H](Cc1ccc(O)cc1)C(N)=O)[C@@H](C)O)C(C)C)[C@@H](C)O
notes: also called 28; compound 28
Regarding B2, the IC50 was 610 pM.

B3: N^α1-[2-[2-[2-[[2-[2-[2-[[(4S)-4-carboxy-4-(19-carboxynonadecanoylamino)butanoyl]amino]ethoxy]ethoxy]acetyl]amino]ethoxy]ethoxy]acetyl]-[Glu14,Arg17,Pro21,Pro27 … (peptide)
peptide: {C20 diacid-γGlu-AEEA-AEEA}-KCNTATCATQRLAEFLRHSSPNFGAIPSSTNVGSNTP-NH2
modifications: disulfide 2-7
SMILES: CC[C@H](C)[C@H](NC(=O)[C@H](C)NC(=O)CNC(=O)[C@H](Cc1ccccc1)NC(=O)[C@H](CC(N)=O)NC(=O)[C@@H]1CCCN1C(=O)[C@H](CO)NC(=O)[C@H](CO)NC(=O)[C@H](Cc1c[nH]cn1)NC(=O)[C@H](CCCNC(=N)N)NC(=O)[C@H](CC(C)C)NC(=O)[C@H](Cc1ccccc1)NC(=O)[C@H](CCC(=O)O)NC(=O)[C@H](C)NC(=O)[C@H](CC(C)C)NC(=O)[C@H](CCCNC(=N)N)NC(=O)[C@H](CCC(N)=O)NC(=O)[C@@H](NC(=O)[C@H](C)NC(=O)[C@@H]1CSSC[C@H](NC(=O)[C@H](CCCCN)NC(=O)COCCOCCNC(=O)COCCOCCNC(=O)CC[C@H](NC(=O)CCCCCCCCCCCCCCCCCCC(=O)O)C(=O)O)C(=O)N[C@@H](CC(N)=O)C(=O)N[C@@H]([C@@H](C)O)C(=O)N[C@@H](C)C(=O)N[C@@H]([C@@H](C)O)C(=O)N1)[C@@H](C)O)C(=O)N1CCC[C@H]1C(=O)N[C@@H](CO)C(=O)N[C@@H](CO)C(=O)N[C@H](C(=O)N[C@@H](CC(N)=O)C(=O)N[C@H](C(=O)NCC(=O)N[C@@H](CO)C(=O)N[C@@H](CC(N)=O)C(=O)N[C@H](C(=O)N1CCC[C@H]1C(N)=O)[C@@H](C)O)C(C)C)[C@@H](C)O
notes: also called 20; compound 20
Turning to B3, the IC50 turned out to be 217 pM.

B4: N^α1-[(4S)-4-carboxy-4-(19-carboxynonadecanoylamino)butanoyl]-[Asp14,Arg17,Pro21,Pro27,Pro37]-h-amylin (peptide)
peptide: {C20 diacid-γGlu}-KCNTATCATQRLADFLRHSSPNFGAIPSSTNVGSNTP-NH2
modifications: disulfide 2-7
SMILES: CC[C@H](C)[C@H](NC(=O)[C@H](C)NC(=O)CNC(=O)[C@H](Cc1ccccc1)NC(=O)[C@H](CC(N)=O)NC(=O)[C@@H]1CCCN1C(=O)[C@H](CO)NC(=O)[C@H](CO)NC(=O)[C@H](Cc1c[nH]cn1)NC(=O)[C@H](CCCNC(=N)N)NC(=O)[C@H](CC(C)C)NC(=O)[C@H](Cc1ccccc1)NC(=O)[C@H](CC(=O)O)NC(=O)[C@H](C)NC(=O)[C@H](CC(C)C)NC(=O)[C@H](CCCNC(=N)N)NC(=O)[C@H](CCC(N)=O)NC(=O)[C@@H](NC(=O)[C@H](C)NC(=O)[C@@H]1CSSC[C@H](NC(=O)[C@H](CCCCN)NC(=O)CC[C@H](NC(=O)CCCCCCCCCCCCCCCCCCC(=O)O)C(=O)O)C(=O)N[C@@H](CC(N)=O)C(=O)N[C@@H]([C@@H](C)O)C(=O)N[C@@H](C)C(=O)N[C@@H]([C@@H](C)O)C(=O)N1)[C@@H](C)O)C(=O)N1CCC[C@H]1C(=O)N[C@@H](CO)C(=O)N[C@@H](CO)C(=O)N[C@H](C(=O)N[C@@H](CC(N)=O)C(=O)N[C@H](C(=O)NCC(=O)N[C@@H](CO)C(=O)N[C@@H](CC(N)=O)C(=O)N[C@H](C(=O)N1CCC[C@H]1C(N)=O)[C@@H](C)O)C(C)C)[C@@H](C)O
notes: also called 10; compound 10
Take B4: the IC50 amounted to 82 pM.

B5: N^α1-[(4S)-4-carboxy-4-(19-carboxynonadecanoylamino)butanoyl]-[Arg17,Pro21,Pro27,Arg34]-h-amylin (peptide)
peptide: B1 peptide with S34R, E35N
modifications: C20 diacid-gGlu on alpha amino group of N-terminal Lys 1; Cys2-Cys7 disulfide; C-terminal amide
notes: also called 39; compound 39
For the molecule B5, the IC50 is 665 pM.
